Assay: yeast display, Sf9 membrane polyspecificity reagent, FACS + sequencing; frameworks hold sequencing errors
How it was run: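 Sorting gates, low and high (top ~1%), were placed on anti-HA fluorescence to track expression and on streptavidin fluorescence to track reagent binding. A clone's polyreactivity label is taken from the gate it came out of. The reagent was 10% biotinylated, detergent-solubilized Sf9 membrane, applied for 1 hour at 4 °C to galactose-induced yeast display cells.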
For “QVQLVESGGGLVQAGGSLRLSCAASGSIFYGYAMGWYRQAPGKERELVAAISGGGRTNYADSVKGRFTISRDNAKNTVYLQMNSLKPEDTAVYYCARRSQRGIYSMYYWGQGTQVTVSS”, the “polyreactivity (PSR sort gate)” value was “low polyreactivity”. With “QVQLVESGGGLVQAGGSLRLSCAASGSIFYGYAMGWYRQAPGKERELVAAISRGGSTYADSVKGRFTISRDNAKNTVYLQMNSLKPEDTAVYYCARRYWNCPLRGWYGYWGQGTQVTVSS” the “polyreactivity (PSR sort gate)” value was “high polyreactivity”. In the case of “QVQLVESGGGLVQAGGSLRLSCAASGSIFYGYAMGWYRQAPGKERELVAAISRRGGSTYYADSVKGRFTISRDIAKNTVDLQMNSLKPEDTAVYYCAAVGLWYEYYYWGQGTQVTVSS”, the “polyreactivity (PSR sort gate)” value is reported as “high polyreactivity”. For “QVQLVESGGGLVQAGGSLRLSCAASGSIFYGYAMGWYRQAPGKERELVASITSSGGSTYYADSVKGRFTISRDNAKNTVYLQMNSLKPEDTAVYYCNADGRPDWYVVRGGFEYWGQGTQVTVSS”, the “polyreactivity (PSR sort gate)” value was “low polyreactivity”. With “QVQLVESGGGLVQAGGSLRLSCAASGSIFYGYAMGWYSQAPGKERELVAAISSSGGSTYYADSVKGRFTISRDNAKNTVYLQMNSLKTEDTAVDYCAADWDFVNGWFNYWGKGTQVTVSS” the “polyreactivity (PSR sort gate)” value was “high polyreactivity”. In the case of “QVQLVESGGGLVQAGGSLRLSCAASGSIFYGYDMGWYRQAPGKERELVAAITIGGGTTYYADSVKGRFTISRDNAKNTVYLQMNSLKPEDTAVYYCAAEFYYTIYSNKVGYDYWGQGTQVTVSS”, the “polyreactivity (PSR sort gate)” value is reported as “high polyreactivity”. In the case of “QVQLVESGGGLVQAGGSLRLSCAASGSIFYHNAMGWYRQAPGKERELVAAITSRGGRTTYADSVKGRFTISRDNAKNTVYLQMNSLKPEDTAVYYCNAVYTGYSYISRVDYWGQGTQVTVSS”, the “polyreactivity (PSR sort gate)” value is reported as “low polyreactivity”. In the case of “QVQLVESGGGLVQAGGSLRLSCAASGSIFYHNSMGWYRQAPGKERELVAAITSGGSTHYADSVKGRFTISRDNAKNTVYLQMNSLKPEDTAVYYCNARDRRRTNLLDYWGQGTQVTVSS”, the “polyreactivity (PSR sort gate)” value is reported as “low polyreactivity”. In the case of “QVQLVESGGGLVQAGGSLRLSCAASGSIFYHYAMGWYRQAPGKERELVAAISQSGGGTYYADSVKGRFTISRDNAKNTVYLQMNSLKPEDTAVYYCIRLSKQKQEFDYWGQGTQVTVSW”, the “polyreactivity (PSR sort gate)” value is reported as “high polyreactivity”. With “QVQLVESGGGLVQAGGSLRLSCAASGSIFYHYAMGWYRQAPGKERELVAAITITGGSTYYADSVKGRFTISRDNAKNTVYLQMNSLKPEDTAVYYCARKWYVHYNYWGQGTQVTVSS” the “polyreactivity (PSR sort gate)” value was “high polyreactivity”. With “QVQLVESGGGLVQAGGSLRLSCAASGSIFYHYVMGWYRQAPGKERELVAAISSSGRTYYADSVKGRFTISRDNAKNTVYLQMNSLKPEDTAVYYCAAYQKYYLRKYEYWGQGTQVTVSS” the “polyreactivity (PSR sort gate)” value was “low polyreactivity”. For “QVQLVESGGGLVQAGGSLRLSCAASGSIFYINDAMGWYRQPPGKERELVAAISSSDGTTYYADSVKGRFTISRDNAKNTVYLQMNSLKPEDTAGYYCAAETRAVGYDGDYWGQGTQVTVSS”, the “polyreactivity (PSR sort gate)” value was “high polyreactivity”. With “QVQLVESGGGLVQAGGSLRLSCAASGSIFYINTMGWYRQPPGKERELVAAINFSDGRTYYADSVKGRFTISRDNAKNTVYLQMNSLKPEDTAVYYCAADVYPSEYDYWGQGTQVTVSS” the “polyreactivity (PSR sort gate)” value was “low polyreactivity”. For “QVQLVESGGGLVQAGGSLRLSCAASGSIFYIYAMGWYRQAPGKERELVAAISWRTSSTYYADSVKGRFTISRDNAKNTVYLQMNSLKPEDTAVYYCAAETWLGSWRQVGMDYWGQGTQVTVSS”, the “polyreactivity (PSR sort gate)” value was “high polyreactivity”. With “QVQLVESGGGLVQAGGSLRLSCAASGSIFYKYMGWSRQAPGKERELVAAITWSGGSTYYADSVKGRFTISRDNAKNTVYLQMNSLKPEDPAVYYCAARDYTRYGYGYWGQGTQVTVSS” the “polyreactivity (PSR sort gate)” value was “high polyreactivity”. For “QVQLVESGGGLVQAGGSLRLSCAASGSIFYKYMGWYRQAPGKERELVAAISWSGGRTYYADSVKGRFTISRDNAKNTVYLQMNSLKPEDTAVYYCNRVVLWRIGDKAFEYWGQGTQVTVSS”, the “polyreactivity (PSR sort gate)” value was “high polyreactivity”. With “QVQLVESGGGLVQAGGSLRLSCAASGSIFYKYMGWYRQAPGKERELVAAITWSGGSTYYADSVKGRFTISRDNAKNTVYLQMNSLKPEDTAVYYCNADDRHSRVGHSWQDAQFDYWGLGTQVTVSS” the “polyreactivity (PSR sort gate)” value was “high polyreactivity”. With “QVQLVESGGGLVQAGGSLRLSCAASGSIFYKYMGWYRQAPGKERELVAAMTWSGGSTYYADSVKGRFTISRDNAKNTVYLQMNSLKPEDTAVYYCNADDRHSRVGHSWQDAQFDYWGQGTQVTVSS” the “polyreactivity (PSR sort gate)” value was “high polyreactivity”. In the case of “QVQLVESGGGLVQAGGSLRLSCAASGSIFYKYTMGWYRPAPGKERELVAAITKSGGSTYYADSVKGRFTISRDNAKNTVYLQMNSLKPEDTAVYYCAARRYRYYSRGSWGQGTQVTVSS”, the “polyreactivity (PSR sort gate)” value is reported as “high polyreactivity”. For “QVQLVESGGGLVQAGGSLRLSCAASGSIFYKYTMGWYRQAPGKERELVAAITKSGGSTYYADSVKGRFTISRDNAKNTVYLQMNSLKPEDTAVYYCAAQIGRSATRGSYGYWGQGTQVTVSS”, the “polyreactivity (PSR sort gate)” value was “high polyreactivity”. In the case of “QVQLVESGGGLVQAGGSLRLSCAASGSIFYLNAMGWYRQAPGKERELVAAINSGGTTNYADSVKGRFTISRDNAKNTVYLQMNSLKPEDTAVYYCATDGYYYYYRVYKFDYWGQGTQVTVSS”, the “polyreactivity (PSR sort gate)” value is reported as “low polyreactivity”. In the case of “QVQLVESGGGLVQAGGSLRLSCAASGSIFYLYAMGWYRQAPGKERELVAGITWSGGRTYYADSVKGRFTISRDNAKNTVYLQMNSLKPEDTAVYYCAAYASRYRYGYWGQGTQVTVSS”, the “polyreactivity (PSR sort gate)” value is reported as “high polyreactivity”. With “QVQLVESGGGLVQAGGSLRLSCAASGSIFYLYTMGWYRQAPWKERELVAGISNGDRTYYADSVKGRFTISRDNAKNTVYLQMNSLKPEDTAVYYCAVTVYWYSRAAEYDYWGQGTQVTVSS” the “polyreactivity (PSR sort gate)” value was “low polyreactivity”. For “QVQLVESGGGLVQAGGSLRLSCAASGSIFYNNAMGWYRQAPGKERELVAAISGSGDSTYYADSVKGRFTISRDNAKNSVYLQMNSLKPEDTAVYYCNATPYVLWWSDMDYWGQGTQVTVSS”, the “polyreactivity (PSR sort gate)” value was “high polyreactivity”. For “QVQLVESGGGLVQAGGSLRLSCAASGSIFYNNAMGWYRQAPGKERELVAAISWRGGSTYYADSVKGRFTISRDNAKNTVYLQMNSLKPEDTAVYYCNAGVRYRGFDYWGQGTQVTVSS”, the “polyreactivity (PSR sort gate)” value was “high polyreactivity”. In the case of “QVQLVESGGGLVQAGGSLRLSCAASGSIFYNYAMGWYRQAPGKEREFVAAISWSGDTTYYADSVKGRFTISRDNAKNTVYLQMNSLKPEDTAVYYCAAESYIWFWRPYYYWGQGTQVTVSS”, the “polyreactivity (PSR sort gate)” value is reported as “low polyreactivity”. In the case of “QVQLVESGGGLVQAGGSLRLSCAASGSIFYNYAMGWYRQAPGKERELVAAIKRSGGITFYADSVKGRFTISRDNAKNTVYLQMNSLKPEVTAVYYCAADRSFGHHFWYTGKRYDYWGQGTKVTVSS”, the “polyreactivity (PSR sort gate)” value is reported as “low polyreactivity”. With “QVQLVESGGGLVQAGGSLRLSCAASGSIFYNYAMGWYRQAPGKERQLVATITRSDGSTYYADSVKGRFTISRDNAKNTVYLQMNSLKPEDTAVYYCNADSLWDSAFGYDYWGQGTQVTVSS” the “polyreactivity (PSR sort gate)” value was “low polyreactivity”. With “QVQLVESGGGLVQAGGSLRLSCAASGSIFYPYAMGWYRQAPGKEREFVAVISKGGTNTYYADSVKGRFTISRDNAKNTVYLQMNSLKPEDTAVYYCAARVDTYRAKYYYWGQGTQVTVSS” the “polyreactivity (PSR sort gate)” value was “high polyreactivity”. For “QVQLVESGGGLVQAGGSLRLSCAASGSIFYPYAMGWYRQAPGKERELVAAIRNGGSTYYADSVKGRFTISRDNAKNTVYLQMNSLKPEDTAVYYCAASVRRRHPFEYWGQGTQVTVSS”, the “polyreactivity (PSR sort gate)” value was “high polyreactivity”. With “QVQLVESGGGLVQAGGSLRLSCAASGSIFYPYAMGWYRQAPGKERELVAAIRWRGGNTYYADSVKGRFTISRDNAKNTVYLQMNSLKPEDTAVYYCAADGKYLQGFGYYYWGQGTQVTVSS” the “polyreactivity (PSR sort gate)” value was “high polyreactivity”. In the case of “QVQLVESGGGLVQAGGSLRLSCAASGSIFYPYAMGWYRQAPGKERELVAAISDSGDITYYADSVKGRFTISRDNAKNTVYLQMNSLKPEDTAVYYCAADRPWGYDYWGQGTQVSVSS”, the “polyreactivity (PSR sort gate)” value is reported as “low polyreactivity”. For “QVQLVESGGGLVQAGGSLRLSCAASGSIFYPYARGWYRQAPGKERELVASITINDGSTYYADSVKGRFTISRDNAKNTVYLQMNSLKPADTAVYYSAVDWLSVTSTIKFEMDYWGQGTQVTVSS”, the “polyreactivity (PSR sort gate)” value was “low polyreactivity”. In the case of “QVQLVESGGGLVQAGGSLRLSCAASGSIFYQNAMGWYRQAPGKERELVAAITSSGGSTYYADSVKGRFTISRDNAKNTVYLQMNSLKPEDTAVYYCNKYFSWRPYSYYYWGQGTQVTVSS”, the “polyreactivity (PSR sort gate)” value is reported as “high polyreactivity”. With “QVQLVESGGGLVQAGGSLRLSCAASGSIFYQNAMGWYRQAPGKESELVAAISWRGDSTSYADSVKGRFTISRDNAKNTVYLQMNSLKPEDPAVYYCATAHDYAFYRYWYVPSEYNYWGQGTLVTVSS” the “polyreactivity (PSR sort gate)” value was “low polyreactivity”. With “QVQLVESGGGLVQAGGSLRLSCAASGSIFYQYAMGWYRLAPGKERELVARITGSSGSTYYADSVKGRFTISRDNAKNTVYLQKNSLKPEDTAVYYCATDNYLIGDYWGQGTQVTVSS” the “polyreactivity (PSR sort gate)” value was “high polyreactivity”. With “QVQLVESGGGLVQAGGSLRLSCAASGSIFYRNAMGWYRQAPGKERELVAAISASGGSTYYADSVKGRFTISRDNAKITVYLQMNSLKPEDTAVYYCAVEYRKSRSYAPMGYWGQGTQVTVSS” the “polyreactivity (PSR sort gate)” value was “high polyreactivity”. In the case of “QVQLVESGGGLVQAGGSLRLSCAASGSIFYRYAKGWYRQPPGKETELVAAIRTTGGRTYYADSVKGRFTISRDNAKNTVYLQMNSLKPADTAVYYCNALQAGVSYDYWGQGTQVTVSS”, the “polyreactivity (PSR sort gate)” value is reported as “high polyreactivity”. With “QVQLVESGGGLVQAGGSLRLSCAASGSIFYRYAMGWSRPAPRKERELVAAISRSGGRTYYADSVKGRFTISRDISKKTVYLQMYSLKAEDTAVYYCADESNVGTDLGGDSWGQGTQVTVSS” the “polyreactivity (PSR sort gate)” value was “high polyreactivity”. In the case of “QVQLVESGGGLVQAGGSLRLSCAASGSIFYRYAMGWYRPAPGKERELVAAITSGGTYYADSVKGRFTISRDNAKNTVYLQMNSLKPEDTAVYYCNRFSYPPSWYDYWGQGTQVTVSS”, the “polyreactivity (PSR sort gate)” value is reported as “low polyreactivity”. In the case of “QVQLVESGGGLVQAGGSLRLSCAASGSIFYRYAMGWYRQAPGKERELVAAIRWSGGSTYYADSVKGRFTISRDNAKNTVYLQMNSLKPEDTAVYYCNGTWAYRGHGYWGQGTQVTVSS”, the “polyreactivity (PSR sort gate)” value is reported as “low polyreactivity”. With “QVQLVESGGGLVQAGGSLRLSCAASGSIFYRYAMGWYRQAPGKERELVAAISRSGASTYYADSVKGRFTISRDNAKNTVYLQMNSLKPEDTAVYYCNALFSKFTNRYDYWGQGTQVTVSS” the “polyreactivity (PSR sort gate)” value was “high polyreactivity”. For “QVQLVESGGGLVQAGGSLRLSCAASGSIFYRYAMGWYRQAPGKERELVAAISSTGSTYYADSVKGRFTISRDNAKNTVYLQMNSLKPEDTAVYYCAARQGFRSYRRYDYWGQGTQVTVSS”, the “polyreactivity (PSR sort gate)” value was “high polyreactivity”.

From the nanobody polyreactivity screen of Harvey et al. (2022)
